Test results taken from US20030224390A1, “Method of identifying conformation-sensitive binding peptides and uses thereof” (Karo Bio AB, priority 2000, published 2003).

T1: androgen receptor (Homo sapiens, UniProt P10275)
T1 sequence (P10275 1-920): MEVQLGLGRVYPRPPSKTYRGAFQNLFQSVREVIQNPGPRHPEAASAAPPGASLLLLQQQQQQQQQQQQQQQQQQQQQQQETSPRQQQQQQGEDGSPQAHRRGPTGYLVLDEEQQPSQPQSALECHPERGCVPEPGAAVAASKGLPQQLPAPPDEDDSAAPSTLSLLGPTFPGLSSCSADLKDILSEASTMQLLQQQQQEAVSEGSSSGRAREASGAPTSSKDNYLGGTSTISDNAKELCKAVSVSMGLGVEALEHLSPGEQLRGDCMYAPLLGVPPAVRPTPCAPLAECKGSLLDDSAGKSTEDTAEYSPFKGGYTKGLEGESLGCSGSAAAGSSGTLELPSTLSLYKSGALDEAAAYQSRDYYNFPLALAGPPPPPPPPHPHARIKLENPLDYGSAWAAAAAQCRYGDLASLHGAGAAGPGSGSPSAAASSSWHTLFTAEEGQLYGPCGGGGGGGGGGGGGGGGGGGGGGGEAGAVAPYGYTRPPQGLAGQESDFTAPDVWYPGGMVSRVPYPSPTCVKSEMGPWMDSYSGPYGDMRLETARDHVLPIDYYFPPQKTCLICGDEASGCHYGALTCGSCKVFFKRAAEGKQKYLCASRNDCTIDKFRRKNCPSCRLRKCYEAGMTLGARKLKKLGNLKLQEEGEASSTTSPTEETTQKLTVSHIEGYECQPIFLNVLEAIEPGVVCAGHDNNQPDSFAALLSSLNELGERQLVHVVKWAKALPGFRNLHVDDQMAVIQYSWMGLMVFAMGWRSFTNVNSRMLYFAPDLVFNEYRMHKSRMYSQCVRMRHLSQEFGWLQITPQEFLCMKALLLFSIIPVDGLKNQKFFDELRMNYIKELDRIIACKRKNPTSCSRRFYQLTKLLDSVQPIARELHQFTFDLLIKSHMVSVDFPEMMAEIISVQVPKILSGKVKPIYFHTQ

T2: Gal4 transcriptional activation domain (AD) fused in frame with AR (pGAD-C2) (yeast, UniProt P10275 1-920, limits assumed)
T2 sequence (looked up): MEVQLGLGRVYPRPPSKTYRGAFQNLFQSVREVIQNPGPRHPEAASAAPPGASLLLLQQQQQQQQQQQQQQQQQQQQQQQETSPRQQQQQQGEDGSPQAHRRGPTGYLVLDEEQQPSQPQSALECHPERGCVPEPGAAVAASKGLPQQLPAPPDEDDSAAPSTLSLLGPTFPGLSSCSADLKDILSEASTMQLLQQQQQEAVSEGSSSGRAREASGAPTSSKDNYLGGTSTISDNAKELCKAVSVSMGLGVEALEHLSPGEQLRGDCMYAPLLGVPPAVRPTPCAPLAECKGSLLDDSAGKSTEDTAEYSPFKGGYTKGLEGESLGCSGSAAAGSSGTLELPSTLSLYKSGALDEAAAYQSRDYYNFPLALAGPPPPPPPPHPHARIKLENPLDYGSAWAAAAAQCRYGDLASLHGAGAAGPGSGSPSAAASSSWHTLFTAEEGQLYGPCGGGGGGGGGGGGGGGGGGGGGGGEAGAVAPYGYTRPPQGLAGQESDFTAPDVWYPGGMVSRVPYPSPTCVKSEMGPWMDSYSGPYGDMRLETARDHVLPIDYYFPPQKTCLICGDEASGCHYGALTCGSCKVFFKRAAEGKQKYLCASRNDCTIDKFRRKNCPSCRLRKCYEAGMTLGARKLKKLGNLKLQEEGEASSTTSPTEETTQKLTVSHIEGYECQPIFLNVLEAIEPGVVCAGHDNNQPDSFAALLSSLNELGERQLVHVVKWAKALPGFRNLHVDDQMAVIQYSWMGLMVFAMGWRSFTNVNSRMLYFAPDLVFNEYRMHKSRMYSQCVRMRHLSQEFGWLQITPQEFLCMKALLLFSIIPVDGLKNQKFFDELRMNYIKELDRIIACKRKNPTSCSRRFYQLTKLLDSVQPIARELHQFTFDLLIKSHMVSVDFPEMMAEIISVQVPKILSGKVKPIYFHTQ


What was measured:
androgen receptor [1] = target: T1, androgen receptor; assay type: cell-based; set-up: expressed in transfected cells
androgen receptor [2] = target: T1, androgen receptor; test: Yeast two-hybrid screening of unbiased X15 peptide library, ligand induced β-galactosidase activity (FIG. 3, Table 503); assay type: cell-based; set-up: expressed in transfected cells; host or cells: Saccharomyces cerevisiae PJ69-4α; ligand induced β-galactosidase activity, No Lig / ligand induced β-galactosidase activity, DHT / ligand induced β-galactosidase activity, CPA / ligand induced β-galactosidase activity, RU / ligand induced β-galactosidase activity, Test / ligand induced β-galactosidase activity, MPA: unit not given here
Description: Our library contained predominantly 15 random amino acid residues/peptide in order to identify motifs that might interact with nuclear receptor domains. If ligand is provided to the cells, one can screen for peptides that interact with the ligand-bound receptor. […] Included at the ends of the oligonucleotide were the synthetic restriction endonuclease cleavage sites, EcoRI or Mfe I (5′ end) and Sal I (3′ end). Oligonucleotides were annealed, then cleaved with excess restriction endonuclease and purified on agarose gels. The purified set of oligonucleotides was subcloned as an in-frame carboxy-terminal fusion to a Gal4 DNA binding domain (plasmid vector pMA424 derivative). […] The transformation mix was divided and grown on plates of selective media containing ligand and 25 mM 3-aminotriazole at 30° C. until colonies appeared in 3-7 days. […] Dihydrotestosterone (DHT) and medroxyprogesterone (MPA) were added to the media at 100 nM to identify peptides that interact with the receptor in the presence of ligand. After colonies appeared they were picked and dispersed into individual wells of a 96-well plate containing rich media (YPD).
To determine ligand dependence, two microliter aliquots were removed from the cell suspension, and arrayed and spotted onto each of two rectangular agar plates, one with 100 nM ligand and one without ligand. Growth was monitored daily.
A secondary test of ligand dependent activation was performed using the integrated GAL4-driven lacZ gene. Cell suspensions of the initial positive clones were diluted 20-fold into 20 microliters of rich media in a microplate and grown overnight at 30° C. in the presence and absence of ligand. Microplates were centrifuged for 5 minutes at 3000 rpm in a swinging table top centrifuge to pellet the yeast cells, and the overlying media was aspirated. […] An OD650 density determination was made to normalize the β-galactosidase activity. β-galactosidase activity was monitored following the addition of buffer containing chlorophenol red-β-galactopyranoside (CPRG) (Boehringer Mannheim) substrate at a final concentration of 0.5 mM. […] The maximum slope value of this measurement was normalized to cell density from the initial OD650 value, and the relative ligand dependence of β-galactosidase was determined by comparing the values plus and minus ligand.
In FIG. 3, all of these ligands were tested. The plasmids from true positives were extracted using standard yeast extraction protocols and re-transformed to verify the positive phenotype.

androgen receptor [3] = target: T1, androgen receptor; assay type: cell-based; set-up: expressed in transfected cells; remark: listed apart in the source
Description: We used a mammalian two-hybrid system to determine specificities of the AR-binding peptides previously identified, through screening of the aforementioned yeast library, as ligand-dependent in their binding activity. Ligand was provided to the cells so the interaction could be observed. The human hepatoma cell line, Huh-7, was used as the recipient of two-hybrid vectors, pM and pVP16 (Clontech) (FIGS. 6A and 6B), containing fusions with peptide and AR, respectively. According to Clontech literature, the Clontech vectors pM and VP16 generate fusions of protein X with the GAL4 DNA-BD and fusions of protein Y with the VP16AD, in the Mammalian MM Two-Hybrid Assay Kit (#K1602-1). (Note: pM and VP16 contain unique cloning sites in the same order and reading frame as the DNA-BD and AD, respectively, vectors in the yeast […] Two-Hybrid Systems.) A third vector, pG5CAT, provides a CAT reporter gene under the control of a GAL4-responsive element and minimal promoter of the adenovirus E1b. The three vectors are cotransfected into any suitable mammalian host cell line by standard methods. The interaction between proteins X and Y is then assayed by measuring CAT gene expression by any standard method. In the absence of activation (i.e., no protein-protein interaction), the minimal E1b promoter will not express significant levels of CAT.
Briefly, cells are seeded in a 24-well culture plate to a density of 50-80% confluence in phenol red-free media containing charcoal-dextran stripped fetal bovine serum (10%). Following incubation overnight, cells are transfected with plasmids pM-peptide, pVP16-AR, pCMV-b-gal, and p5XGAL-Luc3 DNAs using lipofectamine 2000 (LifeTech) according to the manufacturer's protocol. Transfections are allowed to proceed for 6 hours and the transfection media is aspirated and replaced with recovery media for 18 hours. Following the recovery period, cells are treated with compound for 24 hours prior to cell harvesting. Cells are washed with PBS and then lysed using the lysis buffer from the Galacto-Light Plus β-galactosidase assay kit (Tropix). Assays for luciferase and β-galactosidase were performed as described by the manufacturer. Peptide/AR interactions are described in terms of the luciferase activity normalized for transfection efficiency using β-galactosidase activity (see FIG. 4A). Two types of useful information arose from these methods: 1) we generated a panel of useful peptide probes to analyze the conformational state of AR, and 2) we “fingerprinted” AR modulators with respect to AR conformation (FIG. 4B). […] FIG. 4B is the converse of 4A. It compares the ability of six ligands (DHT, MPA, CYP, RU486, FLUT and DHEAs to interact with AR in the presence of each of four peptides (D30, 5G11, B8H3 and […]). Thus, it is a “fingerprint” of each of the six ligands using a four peptide panel. (Note that “1269” and D30” refer to the same peptide.)

[4] = target: ER β (immobilized, in vitro phage assays) (UniProt Q92731 1-530, limits assumed); test: phage ELISA; ICI 182,780 1 µM
Sequence of ER β (immobilized, in vitro phage assays) (Q92731 whole entry, the tested form may be a part): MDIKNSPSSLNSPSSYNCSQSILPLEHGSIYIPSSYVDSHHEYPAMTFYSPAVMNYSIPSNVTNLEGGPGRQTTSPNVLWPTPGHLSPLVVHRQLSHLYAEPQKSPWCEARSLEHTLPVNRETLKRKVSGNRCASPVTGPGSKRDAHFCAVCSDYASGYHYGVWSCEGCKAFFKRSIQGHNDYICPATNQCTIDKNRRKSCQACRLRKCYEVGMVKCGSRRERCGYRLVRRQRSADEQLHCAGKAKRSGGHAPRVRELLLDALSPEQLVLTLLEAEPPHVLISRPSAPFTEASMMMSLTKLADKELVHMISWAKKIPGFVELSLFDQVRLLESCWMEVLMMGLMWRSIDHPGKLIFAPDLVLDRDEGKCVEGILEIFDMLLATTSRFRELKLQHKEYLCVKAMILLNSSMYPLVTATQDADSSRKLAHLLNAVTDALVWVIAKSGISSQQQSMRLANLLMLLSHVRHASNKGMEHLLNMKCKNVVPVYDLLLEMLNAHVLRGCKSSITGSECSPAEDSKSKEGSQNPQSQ

[5] = target: T2, Gal4 transcriptional activation domain …; test: cell-based or functional assay
[6] = target: T2, Gal4 transcriptional activation domain …; test: cell-based or functional assay; remark: listed apart in the source

| β-galactosidase activity, yeast two-hybrid; CPA [5] | β-galactosidase activity, yeast two-hybrid; DHT [5] | β-galactosidase activity, yeast two-hybrid; No Lig [5] | β-galactosidase activity, yeast two-hybrid; RU [5] | Fold induction, yeast two-hybrid [6] [fold] | Molecule | other results |
| --- | --- | --- | --- | --- | --- | --- |
|  |  |  |  |  | EFQQCMCAEVKSWLGGSLDLQPS* [B8E9] | Binding to the androgen receptor in the presence of both agonists and known antagonists (androgen receptor [1]; ligand present): displays binding; Binding to the androgen receptor in the absence of ligand (androgen receptor [1]; no ligand): not; Fold induction (androgen receptor [2]; untitled table before Table 503, values match DHT / No Lig of Table 503): 4; ligand induced β-galactosidase activity, CPA (androgen receptor [2]; yeast two-hybrid, ligand CPA): 0.5635; ligand induced β-galactosidase activity, DHT (androgen receptor [2]; yeast two-hybrid, ligand DHT): 1.75; ligand induced β-galactosidase activity, RU (androgen receptor [2]; yeast two-hybrid, ligand RU): 0.8; ligand induced β-galactosidase activity, No Lig (androgen receptor [2]; yeast two-hybrid, no ligand): 0.4989; luciferase normalized to β-galactosidase, CYP. (androgen receptor [3]): 16.02; luciferase normalized to β-galactosidase, DHT (androgen receptor [3]; mammalian two-hybrid, Huh-7 cells, ligand DHT): 19.64; luciferase normalized to β-galactosidase, MPA (androgen receptor [3]; mammalian two-hybrid, Huh-7 cells, ligand MPA): 18.51; luciferase normalized to β-galactosidase, RU486 (androgen receptor [3]; mammalian two-hybrid, Huh-7 cells, ligand RU486): 10.1916; luciferase normalized to β-galactosidase, no compound (androgen receptor [3]; mammalian two-hybrid, Huh-7 cells, no compound): 0.2091 |
|  |  |  |  |  | SSLDLSQFPMTASFLRESR (also called 35Eβ) [β II (B2)] | phage ELISA grade [4]: 0 |
| -0.0396 | 0.395 | 0 | 0.1 | > 2 | M4D1 (peptide) MKLLSSIEQACDICRLKKLKCSKEKPKCAKCLKNNWECRYSPKTKRSPLTRAHLTEVESRLERLEQLFLLIFPREDLDMILKMDSLQDIKALLTGLFVQDNVNKDAVTDRLASVETDMPLTLRQHRISATSSSEESSNKGQRQLTVSEFRFPFHEMVREWESMGLERVRYAEP |  |
| 0.395 | 0.616 | 0.875 | 0.4 | 1 | B8A10 (peptide) MKLLSSIEQACDICRLKKLKCSKEKPKCAKCLKNNWECRYSPKTKRSPLTRAHLTEVESRLERLEQLFLLIFPREDLDMILKMDSLQDIKALLTGLFVQDNVNKDAVTDRLASVETDMPLTLRQHRISATSSSEESSNKGQRQLTVSEFVNWDAVVPWSELVALLDLQPS |  |
| 8.59 | 24.1 | 2.53 | 6.8 | 10 | M2H3 (peptide) MKLLSSIEQACDICRLKKLKCSKEKPKCAKCLKNNWECRYSPKTKRSPLTRAHLTEVESRLERLEQLFLLIFPREDLDMILKMDSLQDIKALLTGLFVQDNVNKDAVTDRLASVETDMPLTLRQHRISATSSSEESSNKGQRQLTVSEFRQSFVSEILGGGWLPLDLQPS |  |
|  |  |  |  |  | SSPGSREWFKDMLSR (also called 14Tβ; 14T-β) [α/β V (AB5)] | phage ELISA grade [4]: 0 |
| 0.292 | 1.72 | 0.371 | 0.5 | 5 | B2A7 (peptide) MKLLSSIEQACDICRLKKLKCSKEKPKCAKCLKNNWECRYSPKTKRSPLTRAHLTEVESRLERLEQLFLLIFPREDLDMILKMDSLQDIKALLTGLFVQDNVNKDAVTDRLASVETDMPLTLRQHRISATSSSEESSNKGQRQLTVSEFPELLAMTRWGRHAALLEPQRLPPPRTTTQPQTEFERMFFFTRPMRTTGLLDLQPS |  |
